Non-standard residues stand in square brackets, D forms with d. No end group written: not given here. pS = N[C@@H](COP(=O)(O)O)C(=O)O

The test addresses T1, HLA-A*02:01 (human).
T1 construct: monomers captured on streptavidin plates; also called MHC class I
Description: UV peptide exchange ELISA. Summed up:
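Peptide-MHC complexes formed by UV-triggered exchange of a cleavable peptide for the test peptide, with stabilised complexes indicating binding. Exchange products diluted 100 fold onto streptavidin-coated wells, 1h at 37° C.; HRP anti-β2m (2 μg/ml), TMB, absorbance at 450 nm gives exchange yield.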
(An ELISA detects its analyte on a solid surface through an enzyme-linked reagent.)
In turn, AMLENASDIKL yielded a peptide exchange yield of 50 to 75%. The result for ILDPISSGFLL reads 20 to 50%; that for KLYDDMIRL, 50 to 75%; that for ALWDLAADKQTL, not below 75%. The result for VLSSLEINI reads 20 to 50%; that for FLDPGGPMMKL, 50 to 75%. On to TLCDVILMV, for which the peptide exchange yield fell in the range of 50 to 75%. To VMFEDGVLMRL belongs 50 to 75%; to RLL[pS]AAENFL [RLLJAAENFL], 50 to 75%. The molecule YLQLTQSEL returned a peptide exchange yield of 50 to 75%. In turn, WLLPYNGVTV showed a peptide exchange yield of 50 to 75%.

The molecule ALWENPESGEL had a peptide exchange yield of 20 to 50%. The molecule ALAEVAAMENV yielded a peptide exchange yield of 50 to 75%. The result for SLWQDIPDV reads 50 to 75%; that for ALADLIEKELSV, 50 to 75%. ALQETPTSV yielded a peptide exchange yield of 20 to 50%.

In turn, ILLSVPLLVV yielded a peptide exchange yield of 20 to 50%. On to FLTDLEDLTL, for which the peptide exchange yield fell in the range of 50 to 75%. The result for SLLPLSHLV reads 50 to 75%; that for SLIEKLWQT, 20 to 50%. The result for KLYESLLPFA reads 50 to 75%. The result for YLISQVEGHQV reads 50 to 75%. On to SLLNQDLHWSL, for which the peptide exchange yield is not below 75%. SMAELDIKL: the peptide exchange yield lay in the range of 50 to 75%. For the molecule VMNDRLYAI, the peptide exchange yield lay within 50 to 75%.

As to LLLTTIPQI, the peptide exchange yield lay within 50 to 75%. To TVTNAVVTV belongs 50 to 75%; to ALANQIPTV, 20 to 50%; to KLKPGDLVGV, 50 to 75%.

GLLENIPRV showed a peptide exchange yield of 50 to 75%. The molecule YVLEGLKSV gave a peptide exchange yield of 50 to 75%. The result for ILANDGVLLAA reads 50 to 75%; that for KLYPQLPAEI, 50 to 75%; that for TLYDIAHTPGV, not below 75%. The result for YLLQEPPRTV reads 20 to 50%.

Take YLEELPEKLKL: the peptide exchange yield is 50 to 75%. To VTVPPGPSL belongs 20 to 50%; to GLLDLPFRVGV, not below 75%; to FLYDEIEAEVNL, 50 to 75%. ALWDIETGQQTTT: the peptide exchange yield is 50 to 75%.

As to ILVANAIVGV, the peptide exchange yield lay within 50 to 75%. To LLMPSSEDLLL belongs 50 to 75%. NLMEMVAQL came in with a peptide exchange yield of 20 to 50%. LLMENAERV returned a peptide exchange yield of 20 to 50%. KLVDRTWTL (probably a misprint of W as VV) displayed a peptide exchange yield of 50 to 75%.

On to ILLNNSGQIKL, for which the peptide exchange yield was not below 75%.

As to VIADGGIQNV, the peptide exchange yield fell in the range of 20 to 50%. To SLLPLDDIVRV belongs 50 to 75%; to ILTEENIHL, 50 to 75%.

Values taken from patent US20170037110A1 (IMMATICS BIOTECHNOLOGIES, published 2017).
